Assay results as given in patent US20150086555A1.

Legend:
Details in all cases: remark: other sources report otherwise
[1] = biological target: T1, recombinant soluble homotrimeric HA of A/Egypt/3300-NAMRU3/08 (H5N1) (Influenza A virus A/Egypt/3300-NAMRU3/2008(H5N1)); test: HA microarray, BCC supernatant
[2] = biological target: recombinant soluble homotrimeric HA, A/Anhui/1/05 H5N1 (Influenza A virus A/Anhui/1/2005(H5N1)); test: microarray, transfection SN IgG, trimeric HA
[3] = biological target: recombinant soluble homotrimeric HA, A/California/4/09 H1N1 (Influenza A virus A/California/04/2009(H1N1)); test: microarray, transfection SN IgG, trimeric HA
[4] = biological target: recombinant soluble homotrimeric HA, A/Egypt/3300-NAMRU3/08 H5N1 (Influenza A virus A/Egypt/3300-NAMRU3/2008(H5N1)); test: microarray, transfection SN IgG, trimeric HA
[5] = biological target: recombinant soluble homotrimeric HA, A/Hong Kong/156/97 H5N1 (Influenza A virus A/Hong Kong/156/97 (H5N1)); test: microarray, transfection SN IgG, trimeric HA
[6] = biological target: recombinant soluble homotrimeric HA, A/Indonesia/5/05 H5N1 (Influenza A virus A/Indonesia/5/2005(H5N1)); test: microarray, transfection SN IgG, trimeric HA
[7] = biological target: recombinant soluble homotrimeric HA, A/Japan/305/57 H2N2 (Influenza A virus A/Japan/305/1957(H2N2)); test: microarray, transfection SN IgG, trimeric HA
[8] = biological target: recombinant soluble homotrimeric HA, A/Netherlands/219/03 H7N7 (Influenza A virus A/Netherlands/219/03(H7N7)); test: microarray, transfection SN IgG, trimeric HA
[9] = biological target: recombinant soluble homotrimeric HA, A/Solomon Islands/3/06 H1N1 (Influenza A virus A/Solomon Islands/3/2006(H1N1)); test: microarray, transfection SN IgG, trimeric HA
[10] = biological target: recombinant soluble homotrimeric HA, A/South Carolina/1/18 H1N1 (Influenza A virus A/South Carolina/1/18 (H1N1)); test: microarray, transfection SN IgG, trimeric HA
[11] = biological target: recombinant soluble homotrimeric HA, A/Vietnam/1203/04 H5N1 (Influenza A virus A/VietNam/1203/2004(H5N1)); test: microarray, transfection SN IgG, trimeric HA
[12] = biological target: recombinant soluble homotrimeric HA, A/Wisconsin/67/05 H3N2 (Influenza A virus A/Wisconsin/67/2005(H3N2)); test: microarray, transfection SN IgG, trimeric HA
[13] = biological target: recombinant soluble homotrimeric HA, A/chicken/Vietnam/NCVD-016/08 H5N1 (Influenza A virus A/chicken/Vietnam/NCVD-016/2008(H5N1)); test: microarray, transfection SN IgG, trimeric HA
[14] = biological target: recombinant soluble homotrimeric HA, A/duck/Yangzhou/02/05 H8N4 (Influenza A virus A/duck/Yangzhou/02/2005(H8N4)); test: microarray, transfection SN IgG, trimeric HA
[15] = biological target: recombinant soluble homotrimeric HA, A/northern shoveler/California/HKWF115/07 H6N4 (Influenza A virus A/northern shoveler/California/HKWF115/2007(H6N1)); test: microarray, transfection SN IgG, trimeric HA
[16] = biological target: recombinant homotrimeric HA A/duck/Yangzhou/02/05 H8N4 (Influenza A virus A/duck/Yangzhou/02/2005(H8N4)); test: protein microarray, purified IgG, trimeric HA
[17] = biological target: recombinant soluble homotrimeric HA of A/Anhui/1/05 (H5N1) (Influenza A virus A/Anhui/1/2005(H5N1)); test: trimeric HA microarray, transfection supernatant set 2
[18] = biological target: recombinant soluble homotrimeric HA of A/California/4/09 (H1N1) (Influenza A virus A/California/04/2009(H1N1)); test: as above
[19] = biological target: T1, recombinant soluble homotrimeric HA of …; test: as above
[20] = biological target: recombinant soluble homotrimeric HA of A/Indonesia/5/05 (H5N1) (Influenza A virus A/Indonesia/5/2005(H5N1)); test: as above
[21] = biological target: recombinant soluble homotrimeric HA of A/Japan/305/57 (H2N2) (Influenza A virus A/Japan/305/1957(H2N2)); test: as above
[22] = biological target: recombinant soluble homotrimeric HA of A/Netherlands/219/03 (H7N7) (Influenza A virus A/Netherlands/219/03(H7N7)); test: as above
[23] = biological target: recombinant soluble homotrimeric HA of A/Solomon Islands/3/06 (H1N1) (Influenza A virus A/Solomon Islands/3/2006(H1N1)); test: as above
[24] = biological target: recombinant soluble homotrimeric HA of A/South Carolina/1/18 (H1N1) (Influenza A virus A/South Carolina/1/18 (H1N1)); test: as above
[25] = biological target: recombinant soluble homotrimeric HA of A/Vietnam/1203/04 (H5N1) (Influenza A virus A/VietNam/1203/2004(H5N1)); test: as above
[26] = biological target: recombinant soluble homotrimeric HA of A/chicken/Vietnam/NCVD-016/08 (H5N1) (Influenza A virus A/chicken/Vietnam/NCVD-016/2008(H5N1)); test: as above
[27] = biological target: recombinant homotrimeric HA A/swine/Ontario/01911-2/99 H4N6 (Influenza A virus A/Swine/Ontario/01911-2/99 (H4N6)); test: protein microarray, purified IgG, trimeric HA

Binder	Trimeric HA Binding: RLU [1] [RLU]	Trimeric HA Binding: RLU [2] [RLU]	Trimeric HA Binding: RLU [3] [RLU]	Trimeric HA Binding: RLU [4] [RLU]	Trimeric HA Binding: RLU [5] [RLU]	Trimeric HA Binding: RLU [6] [RLU]	Trimeric HA Binding: RLU [7] [RLU]	Trimeric HA Binding: RLU [8] [RLU]	Trimeric HA Binding: RLU [9] [RLU]	Trimeric HA Binding: RLU [10] [RLU]	Trimeric HA Binding: RLU [11] [RLU]	Trimeric HA Binding: RLU [12] [RLU]	Trimeric HA Binding: RLU [13] [RLU]	Trimeric HA Binding: RLU [14] [RLU]	Trimeric HA Binding: RLU [15] [RLU]	Trimeric HA Binding: RLU [16] [RLU]	also measured
TCN-553 (5261_C18) (antibody, V domains shown) VH: QVQVVQSGTEVKKPGSSVKVSCQTSGGRFMSYAITWVRQAPGQGLEWMGGIVPVFGTANYAQKFQGRVTITTDDSTRTAYMELSSLRSEDTAVYYCGFRYGSGYGFDSWGQGTLVTVSS VL: EIVLTQSPGTLSLSPGERATLSCRASQSVSSSYLAWYQKKPGQAPRLLIYGASTRATGIPDRFTGSGSGTDFTLSISRLEPEDFAVYYCQHFGTSVFTFGGGTKVEIK	18800	8550	23300	19500	36300	31200	39800	7530	49600	41300	19200	25200	34700	12500	32500	–	–
TCN-550 (5096_F06) (antibody, V domains shown) VH: QVQLQESGPGLVKPSETLSLTCTVSGASINSHYWSWIRQPPGKGLEWIGYVYYSGSTTYNPSLKSRVTLSVDTSKNQFSLNLSSVTAADTAFYYCARHPYDVLTGSGDWFDPWGQGTLVTVSS VL: SYVLTQAPSVSVAPGQTARITCGGNAIGSKKVHWYQHKAGQAPVLVVYDDTDRPSGIPERFSGSNSWSTATLTINRVEAGDEADYYCQVWDFTIDHVVFGGGTKLTVL	–	7680	628	26800	955	9000	731	3250	758	1010	41900	37800	1800	4710	2300	256	–
TCN-555 (5246_L16) (antibody, V domains shown) VH: QVQLVQSGAEVKRPGSSVKVSCTASGGIFRKNAISWVRQAPGQGLEWMGGIIAVFNTANYAQKFQNRVKITADESGNTAYMELSSLTSDDTAVYYCASHPKYFYGSGSYPDFWGQGTLVTVSS VL: QSALTQPRSVSGSPGQSITISCTGGSSDIGASNSVSWYQQHPGKAPKLVIFDVTERPSGVPHRFSGSKSGNTASLTVSGLQPDDEADYFCCAYGGKYLVVFGGGTKVTVL	42700	12200	20200	20000	36300	33900	16700	–	44600	48000	19300	14700	35200	8540	28700	375	–
TCN-563 (5237_B21) (antibody, V domains shown) VH: QVQLAQSGAEVKRPGSSVKVSCTASGGIFRKNAISWVRQAPGQGLEWMGGIIAVFNTANYAQKFQGRVKITADESGNTAYMELSSLRSDDTAVYYCASHPKYFYGSGSYPDFWGQGTLVTVSS VL: QSALTQPRSVSGSPGQSVTISCTGSSSDVGASNSVSWYQQHPGKAPKLVIYDVTERPSGVPHRFSGSKSGNTASLTVSGLQPEDEADYFCCAYGGKYLVVFGGGTKVTVL	27500	–	–	–	–	–	–	–	–	–	–	–	–	–	–	–	Trimeric HA Binding: RLU [17]: 1570 RLU; Trimeric HA Binding: RLU [18]: 21200 RLU; Trimeric HA Binding: RLU [19]: 23900 RLU; Trimeric HA Binding: RLU [20]: 47300 RLU; Trimeric HA Binding: RLU [21]: 11200 RLU; Trimeric HA Binding: RLU [22]: 5420 RLU; Trimeric HA Binding: RLU [23]: 26500 RLU; Trimeric HA Binding: RLU [24]: 17800 RLU; Trimeric HA Binding: RLU [25]: 31500 RLU; Trimeric HA Binding: RLU [26]: 36300 RLU
TCN-557 (5081_A04) (antibody, V domains shown) VH: QVQLVQSGAEVKKPGASVKVSCKASGHTFTGYYIHWVRQAPGQGLEWMGWINPDSGATSSAQNFQGRVTMTGDTSSSTAYMELSRLSFDDTAVYYCARVLFTSPFDFWGEGTLVTVSS VL: QAVVTQEPSLAVSPGGTVTLTCGSSTGAVTRGHYPYWFQQKPGQAPRALIYDSAGNRHSWTPARFSGSLLGGKAALTLSGAQPEDEAEYYCLLSYSGVWVFGGGTKLTVL	–	20000	44400	26400	27100	22200	27300	53700	27000	44900	21300	46100	23300	24000	49600	27200	Trimeric HA Binding: RLU [27]: 19200 RLU
TCN-552 (5249_I23) (antibody, V domains shown) VH: QVQVVQSGAEVKKPGSSVRVSCQASGGTFMNYAIIWVRRAPGQGLEWMGGIIPVFPTPNYAQMFQGRVTISTDESRSTSFLELTNLRYEDTAVYYCARRIYHGGNSGFDFWGQGTLVTVSS VL: EIVLTQSPATLSLSPGERATLSCRASQSVGNYLAWYQQKPGQAPRLLIYDSSNRAPGIPARFSGSGSGTDFTLTISSLAPEDFAVYYCQQRSKWPPMYSFGHGTKLEIK	40000	9010	23500	21200	36300	43400	52000	7420	48600	37400	18500	18500	34500	15900	43900	–	–
